Legend:
[1] = molecular target: D25 (human monoclonal antibody to site Ø of PreF); experiment: SPR; conditions: read off a plot; for Kd: parent: est. 54 pM; for ratio to parent: parent: est. 1.0
AM14 = experiment: SPR; conditions: read off a plot; for Kd: parent: est. 100 pM; for ratio to parent: parent: est. 1.0
[2] = molecular target: D25 IgG (human monoclonal antibody to site Ø of PreF) (human); experiment: SPR; Biacore T200, single cycle kinetics, IgG captured (100-200 RU) by human Fc binder on a CM5 chip; PreF injected at 0-20 nM, 120 s association, 600 s dissociation; 25 °C, HBS-EP; 1:1 binding model
[3] = molecular target: D25 IgG (human monoclonal antibody to site Ø of PreF) (human); experiment: SPR; Biacore T200, single cycle kinetics, IgG captured ([…]; 25 °C, HBS-EP; 1:1 binding model

| Substance | Kd [1] | ratio to parent [1] | Kd (AM14) | ratio to parent (AM14) | Kd [2] | koff [2] | kon [2] | Kd [3] |
| --- | --- | --- | --- | --- | --- | --- | --- | --- |
| DS-Cav1 (stabilized prefusion RSV glycoprotein F) (from UniProt P03420) N276S | 21 pM | 0.4 | 78 pM | 0.75 |  |  |  |  |
| DS-Cav1 (stabilized prefusion RSV glycoprotein F) (from UniProt P03420) D200N; N276S | 57 pM | 1 | 94 pM | 0.95 |  |  |  |  |
| monomeric form of PreF |  |  |  |  | 97.7 pM | 3.75e-05 s⁻¹ | 384000 M⁻¹ s⁻¹ |  |
| DS-Cav1 (stabilized prefusion RSV glycoprotein F) (from UniProt P03420) N63A | 25 pM | 0.45 | 94 pM | 0.95 |  |  |  |  |
| DS-Cav1 (prefusion-stabilized RSV fusion glycoprotein F), trimeric PreF (from UniProt P03420) (complex) |  |  |  |  |  |  |  | 53.4 pM |
| DS-Cav1 (stabilized prefusion RSV glycoprotein F) (from UniProt P03420) D200N | 22 pM | 0.4 | 120 pM | 1.2 |  |  |  |  |
| DS-Cav1 (stabilized prefusion RSV glycoprotein F) (from UniProt P03420) K65A | 42 pM | 0.75 | 88 pM |  |  |  |  |  |
| DS-Cav1 (stabilized prefusion RSV glycoprotein F) (from UniProt P03420) N63A; K65A | 16 pM | 0.3 | 83 pM |  |  |  |  |  |

Reference: paper PMC7660905
